Target: T1, Recombinant human CD28 (human, UniProt P10747 19-152, limits assumed)
T1 construct: also called CD28 molecule
Assay: BIACORE, recombinant human CD28 immobilized
From the text: Recombinant human CD28 was immobilized on the biosensor (BIACORE) detector.

B1: CD28.3 scFv/α1-antitrypsin fusion protein (other)
chain: DYKDIVKLQQSGAELVKPGASVRLSCKASGYTFTEYIIHWIKLRSGQGLEWIGWFYPGSNDIQYNAKFKGKATLTADKSSSTVYMELTGLTSEDSAVYFCARRDDFSGYDALPYWGQGTMVTVSSGGGGSGGGGSGGGGSDIQMTQSPASLSVSVGETVTITCRTNENIYSNLAWYQQKQGKSPQLLIYAATHLVEGVPSRFSGSGSGTQYSLKITSLQSEDFGNYYCQHFWGTPCTFGGGTKLEIKRTVAAPSEFNKITPNLAEFAFSLYRQLAHQSNSTNIFFSPVSIATAFAMLSLGTKADTHDEILEGLNFNLTEIPEAQIHEGFQELLRTLNQPDSQLQLTTGNGLFLSEGLKLVDKFLEDVKKLYHSEAFTVNFGDTEEAKKQINDYVEKGTQGKIVDLVKELDRDTVFALVNYIFFKGKWERPFEVKDTEEEDFHVDEVTTVKVPMMKRLGMFNIQHCKKLSSWVLLMKYLGNATAIFFLPDEGKLQHLENELTHDIITKFLENEDRRSASLHLPKLSITGTYDLKSVLGQLGITKVFSNGADLSGVTEEAPLKLSKAVHKAVLTIDEKGTEAAGAMFLEAIPMSIPPEVKFNKPFVFLMIEQNTKSPLFMGKVVNPTQKLEGEFEQKLISEEDLNHHHHH
notes: The pIG6 product would also carry DYKD at the N-terminus; not shown: c-myc marker and polyhistidine marker of the vector (pIG6 or pSECTagB)
  Ka: 2.86e+09 M⁻¹
  Kd: 0.349 nM
